From IntAct's records for PubMed 26900326

B1: Molecular chaperone MKKS (Homo sapiens), Q9NPJ1 (parent)
chain: MSRLEAKKPSLCKSEPLTTERVRTTLSVLKRIVTSCYGPSGRLKQLHNGFGGYVCTTSQSSALLSHLLVTHPILKILTASIQNHVSSFSDCGLFTAILCCNLIENVQRLGLTPTTVIRLNKHLLSLCISYLKSETCGCRIPVDFSSTQILLCLVRSILTSKPACMLTRKETEHVSALILRAFLLTIPENAEGHIILGKSLIVPLKGQRVIDSTVLPGILIEMSEVQLMRLLPIKKSTALKVALFCTTLSGDTSDTGEGTVVVSYGVSLENAVLDQLLNLGRQLISDHVDLVLCQKVIHPSLKQFLNMHRIIAIDRIGVTLMEPLTKMTGTQPIGSLGSICPNSYGSVKDVCTAKFGSKHFFHLIPNEATICSLLLCNRNDTAWDELKLTCQTALHVLQLTLKEPWALLGGGCTETHLAAYIRHKTHNDPESILKDDECTQTELQLIAEAFCSALESVVGSLEHDGGEILTDMKYGHLWSVQADSPCVANWPDLLSQCGCGLYNSQEELNWSFLRSTRRPFVPQSCLPHEAVGSASNLTLDCLTAKLSGLQVAVETANLILDLSYVIEDKN
partner: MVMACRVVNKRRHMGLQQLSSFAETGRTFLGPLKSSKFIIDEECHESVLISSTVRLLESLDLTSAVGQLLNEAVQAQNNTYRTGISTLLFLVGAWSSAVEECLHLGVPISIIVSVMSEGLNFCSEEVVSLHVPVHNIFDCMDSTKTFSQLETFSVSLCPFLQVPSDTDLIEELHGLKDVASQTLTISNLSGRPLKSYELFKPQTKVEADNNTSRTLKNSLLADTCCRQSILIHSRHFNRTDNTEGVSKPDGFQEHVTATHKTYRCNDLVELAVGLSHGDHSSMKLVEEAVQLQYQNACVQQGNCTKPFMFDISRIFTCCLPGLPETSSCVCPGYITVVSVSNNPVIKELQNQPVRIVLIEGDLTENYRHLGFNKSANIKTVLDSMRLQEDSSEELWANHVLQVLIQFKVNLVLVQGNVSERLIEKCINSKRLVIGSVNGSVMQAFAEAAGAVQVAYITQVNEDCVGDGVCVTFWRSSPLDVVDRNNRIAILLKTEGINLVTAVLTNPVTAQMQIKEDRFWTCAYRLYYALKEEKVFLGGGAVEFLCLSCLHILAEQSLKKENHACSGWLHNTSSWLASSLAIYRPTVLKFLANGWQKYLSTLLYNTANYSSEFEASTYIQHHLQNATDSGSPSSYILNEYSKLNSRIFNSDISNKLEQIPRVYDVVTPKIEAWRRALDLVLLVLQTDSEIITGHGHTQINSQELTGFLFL

Variants of: B1
Details: with bbs12_human BBS12, Q6ZW61
With MSRLEAKKPSLCKSEPLTTERVRTTLSVLKRIVTSCYGPSGRLKQLHNGFGGYVCTASQSSALLSHLLVTHPILKILTASIQNHVSSFSDCGLFTAILCCNLIENVQRLGLTPTTVIRLNKHLLSLCISYLKSETCGCRIPVDFSSTQILLCLVRSILTSKPACMLTRKETEHVSALILRAFLLTIPENAEGHIILGKSLIVPLKGQRVIDSTVLPGILIEMSEVQLMRLLPIKKSTALKVALFCTTLSGDTSDTGEGTVVVSYGVSLENAVLDQLLNLGRQLISDHVDLVLCQKVIHPSLKQFLNMHRIIAIDRIGVTLMEPLTKMTGTQPIGSLGSICPNSYGSVKDVCTAKFGSKHFFHLIPNEATICSLLLCNRNDTAWDELKLTCQTALHVLQLTLKEPWALLGGGCTETHLAAYIRHKTHNDPESILKDDECTQTELQLIAEAFCSALESVVGSLEHDGGEILTDMKYGHLWSVQADSPCVANWPDLLSQCGCGLYNSQEELNWSFLRSTRRPFVPQSCLPHEAVGSASNLTLDCLTAKLSGLQVAVETANLILDLSYVIEDKN [T57A] the “effect of a mutation on the interaction” value was “disrupting interaction strength”. For MSRLEAKKPSLCKSEPLTTERVRTTLSVLKRIVTSCYGPSGRLKQLHNGFGGYVCTTSQSSALLSHLLVTHPILKILTASIQNHVSSFSDCGLFTAILCCNLIENVQRLGLTPTTVIRLNKHLLSLCISYLKSETCGCRIPVDFSSTQILLCLVRSILTSKPACMLTRKETEHVSALILRAFLLTIPENAEGHIILGKSLIVPLKGQRVIDSTVLPGILIEMSEVQLMRLLPIKKSTALKVALFCTTLSGDTSDTGEGTVVVSYGVSLENAVLDQLPNLGRQLISDHVDLVLCQKVIHPSLKQFLNMHRIIAIDRIGVTLMEPLTKMTGTQPIGSLGSICPNSYGSVKDVCTAKFGSKHFFHLIPNEATICSLLLCNRNDTAWDELKLTCQTALHVLQLTLKEPWALLGGGCTETHLAAYIRHKTHNDPESILKDDECTQTELQLIAEAFCSALESVVGSLEHDGGEILTDMKYGHLWSVQADSPCVANWPDLLSQCGCGLYNSQEELNWSFLRSTRRPFVPQSCLPHEAVGSASNLTLDCLTAKLSGLQVAVETANLILDLSYVIEDKN [L277P], the “effect of a mutation on the interaction” value was “decreasing interaction strength”. MSRLEAKKPSLCKSEPLTTERVRTTLSVLKRIVTSCYGPSGRLKQLHNGFGGYVCTTSQSSALLSHLLVTHPILKILTASIQNHVSSFSDCGLFTAILCCNLIENVQRLGLTPTTVIRLNKHLLSLCISYLKSETCGCRIPVDFSSTQILLCLVRSILTSKPACMLTRKETEHVSALILRAFLLTIPENAEGHIILGKSLIVPLKGQRVIDSTVLPGILIEMSEVQLMRLLPIKKSTALKVALFCTTLSGDTSDTGEGTVVVSYGVSLENAVLDQLLNLGRQLISDHVDLVLCQKVIHPSLKQFLNMHRIIAIDRIGVTLMEPLTKMTGTQPIGSLGSICPNSYGSVKDVCTAKFGSKHFFHLIPNEATICSLLLCNRNDTAWDELKLTCQTALRVLQLTLKEPWALLGGGCTETHLAAYIRHKTHNDPESILKDDECTQTELQLIAEAFCSALESVVGSLEHDGGEILTDMKYGHLWSVQADSPCVANWPDLLSQCGCGLYNSQEELNWSFLRSTRRPFVPQSCLPHEAVGSASNLTLDCLTAKLSGLQVAVETANLILDLSYVIEDKN [H395R] was tested, and the “effect of a mutation on the interaction” value was “decreasing interaction strength”.
